The text below walks through data of the FLAb antibody collection (doi:10.7554/elife.23156).

Usually Kd stands for the concentration at which binding is half-saturated.

B1: scFv; the commonest letter at each place (parent)
chain 1: EVKLDETGGGLVQPGRPMKLSCVASGFTFSDYWMNWVRQSPEKGLEWVAQIRNKPYNYETYYSDSVKGRFTISRDDSKSSVYLQMNNLRVEDMGIYYCTGSYYGMDYWGQGTSVTVS
chain 2: DVVMTQTPLSLPVSLGDQASISCRSSQSLVHSNGNTYLRWYLQKPGQSPKVLIYKVSNRFSGVPDRFSGSGSGTDFTLKISRVEAEDLGVYFCSQSTHVPWTFGGGTKLEIK

Data set [1] covers variants of B1. Nature of the data set: Kd (Tite-Seq). To be noted: with fluorescein; format: scFv 4-4-20, heavy + light.
Variants of B1 are the subject of data set [2]. The data set can be described thus: yeast surface expression (ratio to wild type); higher = more expressed. To be noted: format: scFv 4-4-20, heavy + light.

Consider chain 1 EVKLDETGGGLVQPGRPMKLSCVASGFSFRDYWMNWVRQSPEKGLEWVAQIRNKPYNYETYYSDSVKGRFTISRDDSKSSVYLQMNNLRVEDMGIYYCTGSYYGMDYWGQGTSVTVS chain 2 DVVMTQTPLSLPVSLGDQASISCRSSQSLVHSNGNTYLRWYLQKPGQSPKVLIYKVSNRFSGVPDRFSGSGSGTDFTLKISRVEAEDLGVYFCSQSTHVPWTFGGGTKLEIK [chain 1 T28S S30R], for which, in data set [1], the equilibrium dissociation constant (Kd) was found to be 0.00265 µM. Besides, the yeast surface expression in data set [2] turned out to be 0.787.

Take chain 1 EVKLDETGGGLVQPGRPMKLSCVASGFTFSDYWMNWVRQSPEKGLEWVAQIRNKPYNYETYYSDSVKGRFTISRDDSKSSVYLQMNNLRVEDMGIYYCTGSYFGMDYKGQGTSVTVS chain 2 DVVMTQTPLSLPVSLGDQASISCRSSQSLVHSNGNTYLRWYLQKPGQSPKVLIYKVSNRFSGVPDRFSGSGSGTDFTLKISRVEAEDLGVYFCSQSTHVPWTFGGGTKLEIK [chain 1 Y103F W108K]: the Kd in data set [1] was determined as 0.0171 µM. For the same variant, in data set [2], the yeast surface expression came to 0.318.

chain 1 EVKLDETGGGLVQPGRPMKLSCVASGFTFSDYWMNWVRQSPEKGLEWVAQIRNKPYNYETYYSDSVKGRFTISRDDSKSSVYLQMNNLRVEDMGIYYCTGSYGGSDYWGQGTSVTVS chain 2 DVVMTQTPLSLPVSLGDQASISCRSSQSLVHSNGNTYLRWYLQKPGQSPKVLIYKVSNRFSGVPDRFSGSGSGTDFTLKISRVEAEDLGVYFCSQSTHVPWTFGGGTKLEIK [chain 1 Y103G M105S]: in data set [1], the Kd is at least 10 µM. In addition, the yeast surface expression in data set [2] was 0.983.

On to chain 1 EVKLDETGGGLVQPGRPMKLSCVASGFTFSDVWDNWVRQSPEKGLEWVAQIRNKPYNYETYYSDSVKGRFTISRDDSKSSVYLQMNNLRVEDMGIYYCTGSYYGMDYWGQGTSVTVS chain 2 DVVMTQTPLSLPVSLGDQASISCRSSQSLVHSNGNTYLRWYLQKPGQSPKVLIYKVSNRFSGVPDRFSGSGSGTDFTLKISRVEAEDLGVYFCSQSTHVPWTFGGGTKLEIK [chain 1 Y32V M34D], for which the dissociation constant (Kd) in data set [1] was at least 10 µM. For the same variant, the yeast surface expression in data set [2] came to 0.218.

Turning to chain 1 EVKLDETGGGLVQPGRPMKLSCVASGFTFSDYWMNWVRQSPEKGLEWVAQIRNKPYNYETYYSDSVKGRFTISRDDSKSSVYLQMNNLRVEDMGIYYCTGSIYGMDYNGQGTSVTVS chain 2 DVVMTQTPLSLPVSLGDQASISCRSSQSLVHSNGNTYLRWYLQKPGQSPKVLIYKVSNRFSGVPDRFSGSGSGTDFTLKISRVEAEDLGVYFCSQSTHVPWTFGGGTKLEIK [chain 1 Y102I W108N], the dissociation constant (Kd) in data set [1] is at least 10 µM. In addition, in data set [2], the yeast surface expression came out at 0.316.

Consider chain 1 EVKLDETGGGLVQPGRPMKLSCVASGFTFNDYWMNNVRQSPEKGLEWVAQIRNKPYNYETYYSDSVKGRFTISRDDSKSSVYLQMNNLRVEDMGIYYCTGSYYGMDYWGQGTSVTVS chain 2 DVVMTQTPLSLPVSLGDQASISCRSSQSLVHSNGNTYLRWYLQKPGQSPKVLIYKVSNRFSGVPDRFSGSGSGTDFTLKISRVEAEDLGVYFCSQSTHVPWTFGGGTKLEIK [chain 1 S30N W36N], for which the equilibrium dissociation constant (Kd) in data set [1] was at least 10 µM. For the same variant, the yeast surface expression in data set [2] was 0.265.

Consider chain 1 EVKLDETGGGLVQPGRPMKLSCVASGFTFSDYWMNWVRQSPEKGLEWVAQIRNKPYNYETYYSDSVKGRFTISRDDSKSSVYLQMNNLRVEDMGIYYCTGSYYGMDVWEQGTSVTVS chain 2 DVVMTQTPLSLPVSLGDQASISCRSSQSLVHSNGNTYLRWYLQKPGQSPKVLIYKVSNRFSGVPDRFSGSGSGTDFTLKISRVEAEDLGVYFCSQSTHVPWTFGGGTKLEIK [chain 1 Y107V G109E], for which the Kd in data set [1] was at least 10 µM. Besides, in data set [2], the yeast surface expression was 0.339.

Take chain 1 EVKLDETGGGLVQPGRPMKLSCVASGFTLSDYWWNWVRQSPEKGLEWVAQIRNKPYNYETYYSDSVKGRFTISRDDSKSSVYLQMNNLRVEDMGIYYCTGSYYGMDYWGQGTSVTVS chain 2 DVVMTQTPLSLPVSLGDQASISCRSSQSLVHSNGNTYLRWYLQKPGQSPKVLIYKVSNRFSGVPDRFSGSGSGTDFTLKISRVEAEDLGVYFCSQSTHVPWTFGGGTKLEIK [chain 1 F29L M34W]: in data set [1], the Kd is at least 10 µM. Besides, the yeast surface expression in data set [2] was determined as 0.795.

Take chain 1 EVKLDETGGGLVQPGRPMKLSCVASGFTFSDYWWNWVRQSPEKGLEWVAQIRNKPYNYETYYSDSVKGRFTISRDDSKSSVYLQMNNLRVEDMGIYYCTGSYYGMDYWGQGTSVTVS chain 2 DVVMTQTPLSLPVSLGDQASISCRSSQSLVHSNGNTYLRWYLQKPGQSPKVLIYKVSNRFSGVPDRFSGSGSGTDFTLKISRVEAEDLGVYFCSQSTHVPWTFGGGTKLEIK [chain 1 M34W]: in data set [1], the dissociation constant (Kd) was determined as 0.0391 µM. Further, the yeast surface expression in data set [2] turned out to be 0.869.

Consider chain 1 EVKLDETGGGLVQPGRPMKLSCVASGFTFSDYWMNWVRQSPEKGLEWVAQIRNKPYNYETYYSDSVKGRFTISRDDSKSSVYLQMNNLRVEDMGIYYCTGSYYTMDYFGQGTSVTVS chain 2 DVVMTQTPLSLPVSLGDQASISCRSSQSLVHSNGNTYLRWYLQKPGQSPKVLIYKVSNRFSGVPDRFSGSGSGTDFTLKISRVEAEDLGVYFCSQSTHVPWTFGGGTKLEIK [chain 1 G104T W108F], for which the equilibrium dissociation constant (Kd) in data set [1] is at least 10 µM. Further, the yeast surface expression in data set [2] came out at 0.329.

Turning to chain 1 EVKLDETGGGLVQPGRPMKLSCVASGFTFSDYWMNWVRQSPEKGLEWVAQIRNKPYNYETYYSDSVKGRFTISRDDSKSSVYLQMNNLRVEDMGIYYCTGSYYGMDVWGQGTSVTVS chain 2 DVVMTQTPLSLPVSLGDQASISCRSSQSLVHSNGNTYLRWYLQKPGQSPKVLIYKVSNRFSGVPDRFSGSGSGTDFTLKISRVEAEDLGVYFCSQSTHVPWTFGGGTKLEIK [chain 1 Y107V], the Kd in data set [1] stood at 0.122 µM. Further, the yeast surface expression in data set [2] was determined as 1.15.

Consider chain 1 EVKLDETGGGLVQPGRPMKLSCVASGFTFSYYWMIWVRQSPEKGLEWVAQIRNKPYNYETYYSDSVKGRFTISRDDSKSSVYLQMNNLRVEDMGIYYCTGSYYGMDYWGQGTSVTVS chain 2 DVVMTQTPLSLPVSLGDQASISCRSSQSLVHSNGNTYLRWYLQKPGQSPKVLIYKVSNRFSGVPDRFSGSGSGTDFTLKISRVEAEDLGVYFCSQSTHVPWTFGGGTKLEIK [chain 1 D31Y N35I], for which the dissociation constant Kd in data set [1] was at least 10 µM. The yeast surface expression in data set [2] came to 0.469.
